The target of this assay is 3′-end processing factors. Put plainly: immunoprecipitation under standard salt conditions.

This is an account of results in patent publication US20100136710A1.

Regarding human tRNA splicing endonuclease, the percent of the 3′-end processing factors associated was below 1%.
